Biological target: T1, HLA-A3 (A*0301) (human)
T1 construct: HLA class I on acid-stripped EBV-transformed B cells (B-LCL)
Assay: competition vs KVFPC(FI)ALINK on stripped B-LCL, FACS

Binder | IC50
SMSVWTSPR (also called PRA16-24; PRA(16-24)) [PRAME 16-24 SMSVWTSPR] | < 1000 nM
HLIGLSNLTH [PRAME 429-438 HLIGLSNLTH] | 4000 nM

Further lines, results first:

IC50 | Binder
700 nM | CTWKLPTLAK [PRAME 242-251 CTWKLPTLAK]
< 1000 nM | CLPLGVLMK [PRAME 80-88 CLPLGVLMK]

Biological target: T2, HLA-B62 (B*1501) (human)
T2 construct: HLA class I on acid-stripped EBV-transformed B cells (B-LCL)
Assay: competition vs YLGEFSC(FI)TY on stripped B-LCL, FACS

Binder | IC50
ALYVDSLFF [PRAME 300-308 ALYVDSLFF] | < 1000 nM
LLRHVMNPL [PRAME 316-324 LLRHVMNPL] | 2560 nM

Other lines, results leading:

IC50 | Binder
2410 nM | LQHLIGLSNL [PRAME 427-436 LQHLIGLSNL]
2390 nM | GQHLHLETF [PRAME 89-97 GQHLHLETF]

Biological target: T3, HLA-A1 (A*0101) (human)
T3 construct: Acid-stripped B-LCL
Assay: cell competition vs YLEPAC(FI)AKY, stripped CAA B-LCL, FACS

IC50 | Binder
> 1000 nM | CSQLTTLSFY (also called start 405) [PRAME peptide CSQLTTLSFY]
1000 nM | FLSLQCLQALY (also called start 292) [PRAME peptide FLSLQCLQALY]
2000 nM | GTLHLERLAY (also called start 453) [PRAME peptide GTLHLERLAY]
2000 nM | SLQCLQALY (also called start 294) [PRAME peptide SLQCLQALY]
3000 nM | YISPEKEEQY (also called start 275) [PRAME peptide YISPEKEEQY]
1000 nM | LSHIHASSY [PRAME peptide LSHIHASSY]

Biological target: T4, HLA-A1 (A*0101) (human)
T4 construct: HLA class I on acid-stripped EBV-transformed B cells (B-LCL)
Assay: competition vs YLEPAC(FI)AKY on stripped B-LCL, FACS

Binder | IC50
CSQLTTLSFY [PRAME 405-414 CSQLTTLSFY] | < 1000 nM
LSHIHASSY [PRAME 267-275 LSHIHASSY] | 1000 nM

More lines, now with the values ahead:

IC50 | Binder
3000 nM | YISPEKEEQY [PRAME 275-284 YISPEKEEQY]
2000 nM | SLQCLQALY [PRAME 294-302 SLQCLQALY]
1000 nM | FLSLQCLQALY [PRAME 292-302 FLSLQCLQALY]

Biological target: T5, HLA-B60 (B*4001) (human)
T5 construct: HLA class I on acid-stripped EBV-transformed B cells (B-LCL)
Assay: competition vs KESTC(FI)HLVL on stripped B-LCL, FACS

IC50 | Binder
1480 nM | RELFPPLFM [PRAME 50-58 RELFPPLFM]
2910 nM | KDEALAIAAL [PRAME 36-45 KDEALAIAAL]
1550 nM | DEALAIAAL [PRAME 37-45 DEALAIAAL]

Biological target: T6, HLA-B61 (B*4002) (human)
T6 construct: HLA class I on acid-stripped EBV-transformed B cells (B-LCL)
Assay: competition vs GEFGGC(FI)GSV on stripped B-LCL, FACS

IC50 | Binder
< 1000 nM | RELFPPLFM [PRAME 50-58 RELFPPLFM]
< 1000 nM | LETFKAVL [PRAME 94-101 LETFKAVL]
< 1000 nM | DEALAIAAL [PRAME 37-45 DEALAIAAL]
< 1000 nM | RELFPPLFMA [PRAME 50-59 RELFPPLFMA]

Biological target: T7, HLA-B35 (B*3501) (human)
T7 construct: Acid-stripped B-LCL
Assay: cell competition vs NPDIVC(FI)YQY, stripped BVR B-LCL, FACS

Binder | IC50
SPYLGQMINL [PRAME peptide SPYLGQMINL] | 1980 nM
IPVEVLVDL (also called start 173) [PRAME peptide IPVEVLVDL] | 2240 nM
EPILCPCFM (also called start 499) [PRAME peptide EPILCPCFM] | < 1000 nM
LPRELFPPLF (also called start 48) [PRAME peptide LPRELFPPLF] | 1580 nM

Other lines, results leading:

IC50 | Binder
< 1000 nM | FPPLFMAAF (also called start 53) [PRAME peptide FPPLFMAAF]
2830 nM | QPFIPVEVL (also called start 170) [PRAME peptide QPFIPVEVL]
< 1000 nM | LPRELFPPL (also called start 48) [PRAME peptide LPRELFPPL]
2600 nM | GACDELFSY (also called start 186) [PRAME peptide GACDELFSY]
< 1000 nM | LPTLAKFSPY (also called start 246) [PRAME peptide LPTLAKFSPY]

Biological target: T8, HLA-B60 (B*4001) (human)
T8 construct: Acid-stripped B-LCL
Assay: cell competition vs KESTC(FI)HLVL, stripped DKB B-LCL, FACS

IC50 | Binder
1480 nM | RELFPPLFM (also called start 50) [PRAME peptide RELFPPLFM]
< 1000 nM | YEDIHGTLHL (also called start 448) [PRAME peptide YEDIHGTLHL]
2910 nM | KDEALAIAAL (also called start 36) [PRAME peptide KDEALAIAAL]
1550 nM | DEALAIAAL (also called start 37) [PRAME peptide DEALAIAAL]

Biological target: T9, HLA-B8 (B*0801) (human)
T9 construct: HLA class I on acid-stripped EBV-transformed B cells (B-LCL)
Assay: competition vs FLRGRAC(FI)GL on stripped B-LCL, FACS

IC50 | Binder
1670 nM | QMINLRRLLL [PRAME 258-267 QMINLRRLLL]
< 1000 nM | MINLRRLL [PRAME 259-266 MINLRRLL]
< 1000 nM | INLRRLLL [PRAME 260-267 INLRRLLL]

Biological target: T10, HLA-B61 (B*4002) (human)
T10 construct: Acid-stripped B-LCL
Assay: cell competition vs GEFGGC(FI)GSV, stripped Swei007 B-LCL, FACS

Binder | IC50
LETFKAVL (also called start 94) [PRAME peptide LETFKAVL] | < 1000 nM
DEALAIAAL (also called start 37) [PRAME peptide DEALAIAAL] | < 1000 nM

Other lines, results leading:

IC50 | Binder
< 1000 nM | RELFPPLFMA (also called start 50) [PRAME peptide RELFPPLFMA]
< 1000 nM | RELFPPLFM (also called start 50) [PRAME peptide RELFPPLFM]

Biological target: T11, HLA-A3 (A*0301) (human)
T11 construct: Acid-stripped B-LCL
Assay: cell competition vs KVFPC(FI)ALINK, stripped EKR B-LCL, FACS

Binder | IC50
HLIGLSNLTH (also called start 429) [PRAME peptide HLIGLSNLTH] | 4000 nM
CTWKLPTLAK (also called start 242) [PRAME peptide CTWKLPTLAK] | < 1000 nM

The next lines start with the values.

IC50 | Binder
< 1000 nM | SMSVWTSPR (also called PRA16-24; start 16) [PRAME peptide SMSVWTSPR]
< 1000 nM | CLPLGVLMK (also called start 80) [PRAME peptide CLPLGVLMK]
1000 nM | RLAYLHARLR (also called start 459) [PRAME peptide RLAYLHARLR]

Biological target: T12, HLA-A1 (A*0101) (human)
T12 construct: MHC class I molecule on mild-acid-stripped EBV-transformed B cells (CAA)
Assay: cellular competition binding assay on acid-stripped B-LCL CAA, flow cytometry; competitor Fl-labeled reference peptide YLEPAC(Fl)AKY

IC50 | Binder
< 1000 nM | LSNLTHVLY [PRAME 433-441 …]
2000 nM | GTLHLERLAY [PRAME 453-462 GTLHLERLAY]

Biological target: T13, HLA-B35 (B*3501) (human)
T13 construct: HLA class I on acid-stripped EBV-transformed B cells (B-LCL)
Assay: competition vs NPDIVC(FI)YQY on stripped B-LCL, FACS

Binder | IC50
SPYLGQMINL [PRAME 253-262 SPYLGQMINL] | 1980 nM
GACDELFSY [PRAME 186-194 GACDELFSY] | 2600 nM
LPTLAKFSPY [PRAME 246-255 LPTLAKFSPY] | 110 nM
LPRELFPPLF [PRAME 48-57 LPRELFPPLF] | 1580 nM

Now from value to binder:

IC50 | Binder
< 1000 nM | LPRELFPPL [PRAME 48-56 LPRELFPPL]
< 1000 nM | FPPLFMAAF [PRAME 53-61 FPPLFMAAF]

Biological target: T14, HLA-B8 (B*0801) (human)
T14 construct: Acid-stripped B-LCL
Assay: cell competition vs FLRGRAC(FI)GL, stripped Vavy B-LCL, FACS

Binder | IC50
QMINLRRLLL (also called start 258) [PRAME peptide QMINLRRLLL] | 1670 nM
INLRRLLL (also called start 260) [PRAME peptide INLRRLLL] | < 1000 nM

Next, values leading:

IC50 | Binder
< 1000 nM | MINLRRLL (also called start 259) [PRAME peptide MINLRRLL]
< 1000 nM | YLHARLREL (also called start 462) [PRAME peptide YLHARLREL]

Biological target: T15, HLA-B62 (B*1501) (human)
T15 construct: Acid-stripped B-LCL
Assay: cell competition vs YLGEFSC(FI)TY, stripped BSM B-LCL, FACS

IC50 | Binder
2390 nM | GQHLHLETF (also called start 89) [PRAME peptide GQHLHLETF]
2410 nM | LQHLIGLSNL (also called start 427) [PRAME peptide LQHLIGLSNL]
< 1000 nM | ALYVDSLFF (also called start 300) [PRAME peptide ALYVDSLFF]
2560 nM | LLRHVMNPL (also called start 316) [PRAME peptide LLRHVMNPL]
1660 nM | VLYPVPLESY (also called start 439) [PRAME peptide VLYPVPLESY]
